A word on the IC50: it is the concentration that inhibits the measured activity by half.

Where no end group is shown, it is not given here.

Assay [1] addresses AT4 receptor of sheep central nervous system (sheep). Put plainly: competition for 125I-LVV-haemorphin-7 binding, sheep cerebellar cortical membranes.
For assay [2], the target named is AT4 receptor of bovine adrenal membranes (bovine). In words: competition for 125I-Ang IV binding, bovine adrenal membranes.
Assay [3] addresses AT4 receptor of sheep central nervous system (sheep). In words: competition for [125I]Ang IV binding, sheep cerebellar cortical membranes.
Assay [4] has as its target embryonic chicken Ang II receptor (chicken). In words: competition for 125I[Sar1Ile8]Ang II binding, E13 chicken chorioallantoic membranes.
In assay [5] the target is angiotensin AT4 receptor of Macaca fascicularis brain (Macaca fascicularis). In words: competition for [125I]Ang IV binding, monkey prefrontal cortical sections.
For assay [6], the target named is embryonic chicken AT4 receptor (chicken). Put plainly: cell-based or functional assay.
embryonic chicken AT4 receptor (chicken), sequence (F1NNE7 entry or part of it): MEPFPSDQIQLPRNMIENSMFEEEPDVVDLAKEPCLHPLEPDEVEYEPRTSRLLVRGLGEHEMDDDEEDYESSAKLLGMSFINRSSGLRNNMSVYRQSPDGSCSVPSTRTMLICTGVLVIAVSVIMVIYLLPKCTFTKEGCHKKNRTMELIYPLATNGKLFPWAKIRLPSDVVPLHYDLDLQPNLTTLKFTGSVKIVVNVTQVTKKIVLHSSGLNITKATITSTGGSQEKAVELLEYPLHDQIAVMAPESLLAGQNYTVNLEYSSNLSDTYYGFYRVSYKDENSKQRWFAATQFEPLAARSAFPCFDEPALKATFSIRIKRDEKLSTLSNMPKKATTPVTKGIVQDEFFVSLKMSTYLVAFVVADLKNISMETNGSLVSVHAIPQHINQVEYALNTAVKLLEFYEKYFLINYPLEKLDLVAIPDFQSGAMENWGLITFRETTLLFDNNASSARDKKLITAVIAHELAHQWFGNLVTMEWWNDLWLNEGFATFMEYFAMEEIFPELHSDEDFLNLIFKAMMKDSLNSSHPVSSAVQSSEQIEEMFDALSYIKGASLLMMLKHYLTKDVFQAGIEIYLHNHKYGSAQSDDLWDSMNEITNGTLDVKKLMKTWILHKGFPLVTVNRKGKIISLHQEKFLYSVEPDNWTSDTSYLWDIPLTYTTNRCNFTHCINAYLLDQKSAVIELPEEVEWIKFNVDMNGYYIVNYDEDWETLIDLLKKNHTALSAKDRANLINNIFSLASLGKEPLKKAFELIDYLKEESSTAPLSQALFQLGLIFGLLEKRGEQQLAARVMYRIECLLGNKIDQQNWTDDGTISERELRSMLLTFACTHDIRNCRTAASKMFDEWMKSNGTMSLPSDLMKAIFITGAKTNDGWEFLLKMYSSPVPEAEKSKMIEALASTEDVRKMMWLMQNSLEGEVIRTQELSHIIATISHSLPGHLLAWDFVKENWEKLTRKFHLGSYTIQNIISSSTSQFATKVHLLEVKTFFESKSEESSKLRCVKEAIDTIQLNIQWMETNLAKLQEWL
Assay [7] has the same target. Put plainly: competition for [125I]Ang IV binding, E13 chicken chorioallantoic membranes.

embryonic chicken Ang II receptor (chicken), sequence (P79785 whole entry): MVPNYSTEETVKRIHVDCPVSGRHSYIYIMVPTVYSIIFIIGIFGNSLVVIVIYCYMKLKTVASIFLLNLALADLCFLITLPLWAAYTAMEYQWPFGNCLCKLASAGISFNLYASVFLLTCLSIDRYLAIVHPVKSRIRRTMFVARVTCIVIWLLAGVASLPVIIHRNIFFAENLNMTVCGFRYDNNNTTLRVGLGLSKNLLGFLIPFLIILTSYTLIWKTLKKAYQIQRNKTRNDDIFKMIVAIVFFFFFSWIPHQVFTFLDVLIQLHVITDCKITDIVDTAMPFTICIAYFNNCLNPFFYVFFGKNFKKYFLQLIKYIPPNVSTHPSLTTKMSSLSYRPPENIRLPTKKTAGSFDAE

B1: LVV-haemorphin-7 (peptide)
peptide: LVVYPWTQRF
Consider B1, for which the IC50 in assay [1] is 5.6 nM; in assay [3], 2 nM. Further, the affinity in competing for ^125I-Ang IV binding in assay [2] was in the range of 1 to 5 nM.

B2: angiotensin IV (peptide)
peptide: VYIHPF
modifications: also: same id also used for [125I]Ang IV tracer, radioiodinated with chloramine T
With B2, the IC50 in assay [1] is 1 nM; in assay [4] it was 50 µM; in assay [5], 5 nM; in assay [3], 1.13 nM; in assay [7], 18 nM. In addition, the inhibition of neurite outgrowth from E11 chicken sympathetic neurons: half maximal inhibition in assay [6] was found to be 100 pM. For the same molecule, the inhibition of neurite outgrowth from E11 chicken sympathetic neurons: maximal effect in assay [6] was determined as 1 nM. The inhibition of neurite outgrowth from E11 chicken sympathetic neurons: threshold in assay [6] turned out to be 10 pM. Further, the affinity in competing for ^125I-Ang IV binding in assay [2] lay within 1 to 5 nM.

Source of the values: patent US20020147129A1.
